Test results reported in patent publication US20260242818A1.

Target: barnase (Bacillus amyloliquefaciens) (UniProt P00648)
Test: cell-based or functional assay

Chain of UniProt P00648 (P00648 48-157 limits assumed): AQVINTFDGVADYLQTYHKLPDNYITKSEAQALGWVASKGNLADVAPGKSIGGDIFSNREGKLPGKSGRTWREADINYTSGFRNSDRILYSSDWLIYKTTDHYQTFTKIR

For barstar (from UniProt P11540 2-90), the pollen formation in F1 anthers (PI staining, confocal microscopy); TA29b::barnase × TA29b::barstar, barstar under the same promoter as barnase (pollen grains) was 0 and the pollen viability (FDA/PI assay) in successful rescue F1 flowers, TA29b::barnase × TA29a::barstar was 3.6%.
